# Measurements: paper doi:10.1101/2019.12.15.876185
# System: CTCF (human)
# Assay: EMSA
substance,measurement,value
Cacna1b e37a DNA probe (139 bp),Kd,0.0461 ng
